Measured values from article PMC10807245, “A functional and structural comparative analysis of large tumor antigens reveals evolution of different importin α‐dependent nuclear localization signals” (Protein Science : A Publication of the Protein Society, 2024).
Primed or numbered codes have the meaning given here. Where no end group is shown, it is not given here. FITC′ = fluorescein isothiocyanate; Ahx = NCCCCCC(=O)O

T1: human importin α3 lacking the IBB domain (IMPα3ΔIBB) (human, UniProt O00629 64-521)
T1 sequence (looked up): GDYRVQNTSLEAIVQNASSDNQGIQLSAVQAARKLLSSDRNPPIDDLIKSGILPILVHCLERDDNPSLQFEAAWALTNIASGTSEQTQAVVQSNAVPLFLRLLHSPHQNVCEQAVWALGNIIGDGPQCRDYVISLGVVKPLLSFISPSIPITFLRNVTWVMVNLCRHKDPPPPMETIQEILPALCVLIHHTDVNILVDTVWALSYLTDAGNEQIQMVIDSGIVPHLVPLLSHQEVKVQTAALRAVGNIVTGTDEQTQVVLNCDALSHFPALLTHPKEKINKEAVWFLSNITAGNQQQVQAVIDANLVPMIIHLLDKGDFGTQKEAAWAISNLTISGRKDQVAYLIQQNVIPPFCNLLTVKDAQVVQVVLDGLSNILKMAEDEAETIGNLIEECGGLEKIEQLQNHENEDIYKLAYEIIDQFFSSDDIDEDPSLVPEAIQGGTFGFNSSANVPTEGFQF


Key:
Conditions in all cases: both partners purified
[1] = target: T1, human importin α3 lacking the IBB …; assay: native gel or EMSA; 1.5% agarose gel in TB buffer (0.45 mM tris, 0.45 mM boric acid, pH 8.5), 70 V for 2 h; IMPαΔIBB ± FITC-cNLS peptide; UV image for the peptide, Coomassie for the protein
[2] = target: human importin α7 lacking the IBB domain (IMPα7ΔIBB) (human, UniProt O60684 73-536); assay: as above
Chain of human importin α7 lacking the IBB domain (IMPα7ΔIBB) (O60684 73-536, stated change not applied): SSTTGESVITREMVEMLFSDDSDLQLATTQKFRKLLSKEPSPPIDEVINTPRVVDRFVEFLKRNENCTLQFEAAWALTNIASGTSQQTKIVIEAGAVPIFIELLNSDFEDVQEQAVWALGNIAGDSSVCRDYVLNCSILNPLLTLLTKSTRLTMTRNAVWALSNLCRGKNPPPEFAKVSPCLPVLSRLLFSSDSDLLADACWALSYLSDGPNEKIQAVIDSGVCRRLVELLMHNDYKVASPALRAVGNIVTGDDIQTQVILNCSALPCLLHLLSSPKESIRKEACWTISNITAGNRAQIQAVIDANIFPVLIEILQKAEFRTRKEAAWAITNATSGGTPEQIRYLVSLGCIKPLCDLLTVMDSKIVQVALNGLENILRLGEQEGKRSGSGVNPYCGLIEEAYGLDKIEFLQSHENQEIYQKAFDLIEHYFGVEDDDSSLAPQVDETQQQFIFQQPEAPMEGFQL

[3] = target: T2, mouse importin α2 lacking the IBB domain (IMPα2ΔIBB) (mouse, UniProt P52293 70-529); assay: as above
[4] = target: human importin α5 lacking the IBB domain (IMPα5ΔIBB) (human, UniProt P52294 73-538); assay: as above
Chain of human importin α5 lacking the IBB domain (IMPα5ΔIBB) (P52294 73-538, stated change not applied): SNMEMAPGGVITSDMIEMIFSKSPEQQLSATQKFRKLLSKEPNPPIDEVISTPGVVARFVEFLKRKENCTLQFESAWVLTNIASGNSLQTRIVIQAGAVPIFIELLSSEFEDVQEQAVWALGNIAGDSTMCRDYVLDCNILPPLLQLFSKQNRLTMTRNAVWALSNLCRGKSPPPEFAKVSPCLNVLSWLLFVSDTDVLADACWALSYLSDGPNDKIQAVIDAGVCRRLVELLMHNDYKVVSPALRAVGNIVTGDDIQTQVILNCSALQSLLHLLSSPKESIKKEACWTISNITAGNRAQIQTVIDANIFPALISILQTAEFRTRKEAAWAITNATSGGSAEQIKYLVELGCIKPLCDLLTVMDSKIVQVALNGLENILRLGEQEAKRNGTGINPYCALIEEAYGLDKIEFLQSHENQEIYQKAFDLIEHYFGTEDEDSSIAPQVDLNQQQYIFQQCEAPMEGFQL

[5] = target: T3, human importin α1 lacking the IBB domain (IMPα1ΔIBB) (human, UniProt P52292 70-529); assay: as above
[6] = target: T2, mouse importin α2 lacking the IBB …; assay: crystal structure
[7] = target: T3, human importin α1 lacking the IBB …; assay: fluorescence polarisation; two-fold dilutions of IMPαΔIBB titrated against FITC-cNLS peptide in tris-buffered saline, 200 μL; one site specific binding fit; triplicate

Binder	binding result [1]	binding result [2]	binding result [3]	binding result [4]	binding result [5]	binding result [6]	Kd [7] [nM]
{FITC′-Ahx}-PKKRPRESSSNSTCTPPKRPRNF (also called MWPyV LTA cNLS; MWPyV LTA bipartite cNLS) [MWPyV LTA NLSbip peptide]	binds	binds	binds	binds	binds		
{FITC′-Ahx}-KRSAPEEEPSCSQATPPKKKHA (also called KIPyV LTA cNLS; KIPyV LTA bipartite cNLS) [KIPyV LTA NLSbip peptide]	binds	binds	binds	binds	binds		
{FITC′-Ahx}-KRKFPDSSTQNSTPPKKNKPA (also called STLPyV LTA cNLS; STLPyV LTA bipartite cNLS) [STLPyV LTA NLSbip peptide]	binds	binds	binds	binds	binds		
{FITC′}-PFSRKRKFGGS [MCPyV LTA NLSm peptide]			binds				
{FITC′-Ahx}-MFASDDENTGSQHSTPPKKKKKV (also called JCPyV LTA cNLS; JCPyV LTA monopartite cNLS) [JCPyV LTA NLS peptide]	binds	binds		binds		binds	76 to 270
{FITC′-Ahx}-PFSRKRKFGGSRSSASSASSASFTSTPPKPKKNRE (also called MCPyV LTA cNLS; bipartite MCPyV LTA NLS; source: synthetic peptide (solid phase, HPLC purified)) [MCPyV LTA NLSbip peptide]	binds	binds	binds	binds	binds		
{FITC′-Ahx}-KRTREDDEEPQCSQATPPKKKKD (also called WUPyV LTA cNLS; WUPyV LTA bipartite cNLS) [WUPyV LTA NLSbip peptide]	binds	binds	binds	binds	binds		
